Results on one molecule are retold here after publication PMC5419422 (Science immunology, 2017).

This assay deals with recombinant human HIS-tagged CFP (human, UniProt P27918 28-469). The experiment in a line: SPR. On the technique in general: SPR reads the build-up and loss of mass on a sensor chip optically.
recombinant human HIS-tagged CFP, sequence (P27918 28-469): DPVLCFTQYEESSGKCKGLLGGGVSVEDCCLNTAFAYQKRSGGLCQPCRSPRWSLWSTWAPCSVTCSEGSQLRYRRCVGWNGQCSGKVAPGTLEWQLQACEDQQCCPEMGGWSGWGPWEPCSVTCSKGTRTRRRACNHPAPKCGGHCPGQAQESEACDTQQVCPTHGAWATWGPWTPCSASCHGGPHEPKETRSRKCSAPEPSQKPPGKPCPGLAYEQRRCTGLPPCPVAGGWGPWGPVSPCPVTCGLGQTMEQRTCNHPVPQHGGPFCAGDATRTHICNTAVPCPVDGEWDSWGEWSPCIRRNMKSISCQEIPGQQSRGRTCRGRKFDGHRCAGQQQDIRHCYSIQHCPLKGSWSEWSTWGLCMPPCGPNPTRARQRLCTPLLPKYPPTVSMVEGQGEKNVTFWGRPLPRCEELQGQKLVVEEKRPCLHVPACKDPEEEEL

B1: mouse NKp46-Fc (Fc fusion)
chain: QRINTEKETLPKPIIWAKPSIMVTNGNSVNIWCQGAQSASEYQLYFEGSFFALERPKPSRSMNKVRFFISQMTSHTAGIYTCFYQSGELWSKSSNPLKLVVTGLYDTPNLWVYPQPEVTLGENVTFFCQLKTATSKFFLLKERGSNHIQNKYGNIQAEFPMGPVTRAHRGTYRCFGSYNDYAWSFPSEPVTLLITGGVENSSLAPTDPTSSLDYWEFDLSTNESGLQKDSAFWDHTTQN
Turning to B1, the binding result was “binds”.
